From patent US9012420B2, “Aptamer for chymase, and use thereof” (Ribomic Inc., priority 2009, dated 2015) come the findings set out here.

Data set [1] has as its target T1, chymase (recombinant, manufactured by SIGMA) (Homo sapiens, UniProt P23946).
T1 construct: purchased SIGMA; host or cells: yeast
T1 sequence (P23946 22-247): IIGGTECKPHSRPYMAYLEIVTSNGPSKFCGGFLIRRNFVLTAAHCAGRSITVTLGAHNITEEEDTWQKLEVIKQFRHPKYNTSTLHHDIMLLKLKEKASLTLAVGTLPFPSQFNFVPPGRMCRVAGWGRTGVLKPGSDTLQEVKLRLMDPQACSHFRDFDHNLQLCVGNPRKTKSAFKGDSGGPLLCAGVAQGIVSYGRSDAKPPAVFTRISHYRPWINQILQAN
Put plainly: Chymase inhibitory activity using synthetic substrate Suc-Ala-Ala-Pro-Phe-MCA. Type of data set: biochemical. The note with it: Table 7; same manner as Example 3; mean value of two measurements. In short, it runs like this:
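Human recombinant chymase (16.7 nM or 1.67 nM final) preincubated 5 min at 37° C., then added to nucleic acid (0.0027–2 μM serial dilutions) and 100 μM substrate in solution C. AMC fluorescence (ex 380/em 460 nm) followed 5 or 30 min at 37° C.; slope gives initial velocity, inhibition versus no-inhibitor control yields IC50.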

The target in data set [2] is T2, native chymase (purified from human skin mast cell) (Homo sapiens, UniProt P23946).
T2 construct: the native is chymase purified from human skin mast cell; purchased Calbiochem; host or cells: human skin mast cell
T2 sequence (P23946 22-247): T1 sequence (P23946 22-247)
Put plainly: Chymase inhibitory activity using angiotensin I as substrate, native chymase. Type of data set: biochemical. The note with it: final 50 μM, chymase 0.2-0.5 nM, 37° C. 90 min, one measurement. On the procedure:
(§1) A second method of evaluation employs a native substrate. A useful native substrate for chymase is angiotensin I. Here, His-Leu, a peptide fragment released upon degradation of angiotensin I, is fluorescently derivatized, and the fluorescence intensity therefrom is quantified.
(§2) In the assay, an enzyme reaction is carried out in 50 μL of solution C. First, 0.3-0.75 ng of chymase (recombinant, manufactured by SIGMA; or native, manufactured by Calbiochem) is diluted in solution C to obtain 5 μL chymase solution. Each nucleic acid is prepared in solution C to obtain 25 μL solutions. 5 μL of each chymase dilution and 25 μL of each nucleic acid solution are mixed, and then the mixture is incubated at 37° C. for 5 minutes. […] The angiotensin I solution is added to the mixture of chymase and nucleic acid, and the enzyme reaction is initiated. After the reaction was allowed to proceed at 37° C. for 90 minutes, 25 μL of ice-cooled 30% trichloroacetic acid solution is added to terminate the reaction. The entire mixture is centrifuged at 4° C., 14000 rpm for 10 minutes, and 30 μL of the resulting supernatant is used for the subsequent reaction for fluorescent derivatization.
(§3) After 30 μL of the supernatant is added to a 96-well plate (Black, manufactured by Costar), 15 μL of 2% o-phthalaldehyde (manufactured by SIGMA) solution in methanol and 170 μL of 0.3M NaOH solution are mixed in each well, and the plate is allowed to stand at room temperature for 10 minutes. Subsequently, 25 μL of 3M HCl solution is added to terminate the reaction. The plate is set to the microplate reader SpectraMax190 (manufactured by Molecular Devices Corporation), and the fluorescence intensity is determined at an excitation wavelength of 355 nm and a fluorescence wavelength of 460 nm.
(§4) For control, samples are treated and analyzed in the same manner in two cases: use of SEQ ID NO: 58 (negative control) and use of chymostatin, a known chymotrypsin-like serine protease inhibitor (positive control). In both cases, fluorescence intensity obtained at 0 minute reaction time serves as a blank determination. Taking the fluorescence intensity detected with the addition of an equal volume of solution C, in place of each nucleic acid, in the chymase enzyme reaction as 100%, the inhibitory rate for each test substance is calculated, and the inhibitor concentration required to cause a 50% inhibition of the enzyme activity (IC50) is determined.
(§5) For further assessment of the inhibitory activity of the nucleic acid of the present invention, the enzyme activity of chymase was measured using angiotensin I, which is a native substrate for chymase, according to the following method. Angiotensin I is converted by chymase to angiotensin II, during which a peptide fragment His-Leu is released. Since the peptide His-Leu is fluorescently derivatized by o-phthalaldehyde, its fluorescence intensity can be quantitatively measured.
(§6) The total volume of solution for an enzyme reaction in the assay was set to 50 μL, and the reaction was performed in solution C buffer. First, 0.3-0.75 ng of chymase (recombinant, (manufactured by SIGMA) or native (manufactured by Calbiochem)) was diluted with solution C to give 5 μL thereof. Here, the recombinant is chymase expressed by yeast, and the native is chymase purified from human skin mast cell. The nucleic acid was serially diluted with solution C at a concentration of 0.0027-2 μM to give 25 μL thereof. The chymase solution (5 μL) and the nucleic acid solution (25 μL) were mixed, and the mixture was incubated at 37° C. for 5 min. On the other hand, […] angiotensin I (manufactured by PEPTIDE INSTITUTE, INC.) was prepared in solution C to give […] thereof, which was incubated at 37° C. for 5 min. The angiotensin I solution was added to a mixture of chymase and nucleic acid to start an enzyme reaction. The final chymase concentration of the reaction solution was 0.2-0.5 nM, and the final substrate concentration was 50 μM. […]

The target of data set [3] is T3, recombinant chymase (expressed by yeast) (Homo sapiens, UniProt P23946).
T3 construct: purchased SIGMA; host or cells: yeast
T3 sequence (P23946 22-247): T1 sequence (P23946 22-247)
Put plainly: Chymase inhibitory activity using angiotensin I as substrate, recombinant chymase. The note with it: final 50 μM, chymase 0.2-0.5 nM, 37° C. 90 min, one measurement. Type of data set: biochemical. On the procedure:
as §1, §2, §3, §4, §5, §6

Data set [4] addresses T4, chymase (recombinant) (UniProt P23946 P23946:22-247).
T4 sequence: T1 sequence (P23946 22-247)
As to the kind of experiment: inhibition; SPR ++. The note with it: tags: SIGMA, expressed in yeast. On the procedure: (§7) Here, Suc is a protecting succinyl group, and MCA is a 4-methylcoumaryl-7-amide group; upon cleavage of the C-terminal side of phenylalanine, AMC (7-amino-4-methyl-coumarine) is released. By detecting the fluorescence of this AMC, the enzyme activity of chymase can be determined. The assay was performed using a 96-well plate (F16 Black Maxisorp Fluoronunc, manufactured by Nunc), with a reaction mixture volume of 100 μL, in solution C as a buffer solution. First, each nucleic acid was serially diluted to 0.0027-2 μM concentrations in solution C to obtain 50 μL solutions. After 10 μL of the 1 mM substrate prepared in solution C was added thereto, the plate was set to the microplate reader SpectraMax190 (manufactured by Molecular Devices Corporation), and incubated at 37° C. for 5 minutes. Separately, 0.05 μg (or 0.005 μg) of chymase (recombinant, manufactured by SIGMA) was diluted in solution C to obtain a 40 μL chymase solution, and incubated at 37° C. for 5 minutes. The chymase solution was added to the mixture of the nucleic acid and substrate to initiate an enzyme reaction. The final chymase concentration in the reaction mixture was 16.7 nM (or 1.67 nM), the final substrate concentration being 100 μM. The plate containing the reaction mixture was set to the microplate reader SpectraMax190 (manufactured by Molecular Devices Corporation), and examined for time-dependent changes in the fluorescence intensity at 37° C. for 5 minutes (or 30 minutes) (excitation wavelength 380 nm, detection wavelength 460 nm). A linear approximation of the increase in the fluorescence of the AMC released from the substrate by chymase activity was generated, and its slope was taken as the initial velocity […]. For control, samples were treated and analyzed in the same manner in two cases: use of a 30N or 40N (a nucleotide of 30 or 40 consecutive bases represented by N; N is A, G, C or T) nucleic acid pool (negative control), and use of chymostatin, a known chymotrypsin-like serine protease inhibitor (positive control). Taking the initial reaction velocity without the nucleic acid and inhibitor (V_0) as a 100% enzyme activity, the inhibitory rate of each test substance was calculated using the following equation: […]
The inhibitory activity on chymase was measured in the same manner as in Example 3.

The target in data set [5] is T4, chymase (recombinant). As to the kind of experiment: inhibition; SPR ++. The settings on record: tags: SIGMA, expressed in yeast. Here is the method:
as §7
This is another data set of the same source.

For a further data set, the target named is T5, chymase (Homo sapiens, UniProt P23946).
T5 sequence (P23946 22-247): T1 sequence (P23946 22-247)
As to the kind of experiment: Surface plasmon resonance (Biacore T100), aptamer immobilized on SA chip, chymase injected as analyte. Details: key: ++: a sequence that binds to chymase significantly more strongly than the negative control 30N. The note with it: Table 2; same manner as Example 1, running buffer solution C; compared with 30N. Type of data set: binding. On the procedure: Binding strength is measured using Biacore T100 (manufactured by GE Healthcare). In a method of measurement, the aptamer is first immobilized onto a sensor chip, the amount immobilized being about 1000 RU. 20 μL of a chymase solution for analyte, prepared at 0.2 μM, is injected, and the binding of chymase to the aptamer is detected. An RNA comprising a random nucleotide sequence of 30 or 40 nucleotides is used as a negative control.
The binding activities against chymase of the nucleic acids shown by SEQ ID NO: 4-20 and 22-34 were determined by the surface plasmon resonance method using Biacore T100 (manufactured by GE Healthcare). The sensor chip used was the SA chip, which had streptavidin immobilized thereon. Bound thereto was about 1500 RU of a 16-nucleotide Poly dT with biotin bound to the 5′ end thereof. […] 20 μL of chymase for analyte, prepared at 0.2 μM, was injected. Solution A was used as a running buffer.
The binding activities against chymase of the nucleic acids shown by SEQ ID NO: 38-48 were evaluated by the surface plasmon resonance method. In the evaluations for SEQ ID NO: 38-48, measurements were taken in the same manner as Example 1. Solution C was used as a running buffer.

Regarding “69 (AAAGGGUUAGAUAGAGUUAAAAACCC; listed as RNA, chemistry not given here) [compound 69]”, the results for the half-inhibitory concentration (IC50) in data set [1], in data set [2] and in data set [3] were 91 ± 19 nM, over 1000 nM and 628 nM, respectively.

As for GGGUUAGAUAGAGUUAAAAACCC (ssRNA, 2'-F pyrimidines; 2'-OMe G13) [56(12)], the IC50 with chymase (recombinant) [4] turned out to be 35 nM.

B1: SEQ 30 (ssRNA)
RNA: GGGACGGUAGGAAUUCGUCCCUCUUGUCUAUUUUGCAGAUAGACUUAAAGCAAACAUAGAAGAGCGGCCGC
modifications: 2'-F pyrimidines
Take B1: the IC50 with chymase (recombinant) [5] is 147 nM.

Turning to GGGUUAGAUAGAGUUAAAAACCC (ssRNA, 2'-F pyrimidines; 2'-OMe G1-G3) [56(2)], in the data set with chymase (recombinant) [4], the IC50 was 24 nM.

For GGGUUAGAUAGAGUUAAAAACCC (ssRNA, 2'-F pyrimidines; 5' and 3' idT) [56(1)], the IC50 with chymase (recombinant) [4] stood at 26 nM.

Turning to GGGUUAGAUAGAGUUAAAAACCC (ssRNA, 2'-F pyrimidines; 2'-OMe A10) [56(4)], in the data set with chymase (recombinant) [4], the IC50 was 27 nM.

As to GGGUUAGAUAGAGUUAAAAACCC (ssRNA, 2'-F pyrimidines; 2'-OMe A19,A20) [56(3)], the IC50 with chymase (recombinant) [4] came out at 25 nM.

B2: SEQ 26 (ssRNA)
RNA: GGGACGGUAGGAAUUCGUCGAUUCUACAGAUAGAGAUAAAGUAGAAUUUAACAAAACAUAGAAGAGCGGCCGC
modifications: 2'-F pyrimidines
In the case of B2, in the data set with chymase (recombinant) [5], the IC50 amounted to 106 nM.

Turning to GGGUUAGAUAGAGUUAAAAACCC (ssRNA, 2'-F pyrimidines; 2'-OMe A8) [56(7)], the IC50 with chymase (recombinant) [4] amounted to 38 nM.

As to GGGUUAGAUAGAGUUAAAAACCC (ssRNA, 2'-F pyrimidines; 2'-OMe A12) [56(9)], in the data set with chymase (recombinant) [4], the IC50 is 111 nM.

Turning to GGGUUAGAUAGAGUUAAAAACCC (ssRNA, 2'-F pyrimidines except U15 2'-OH) [56(16)], the half-maximal inhibitory concentration (IC50) with chymase (recombinant) [4] is 58 nM.

B3: SEQ 25 (ssRNA)
RNA: GGGACGGUAGGAAUUCAGCUGACUCCAAUGCACACGUAGAUAGAGUUAAAACGUUGCAUAGAAGAGCGGCCGC
modifications: 2'-F pyrimidines
For the molecule B3, the IC50 with chymase (recombinant) [5] stood at 79 nM.

GGGUUAGAUAGAGUUAAAAACCC (ssRNA, 2'-F pyrimidines; 2'-OMe G7) [56(6)]: the IC50 in the data set with chymase (recombinant) [4] is 31 nM.

For the molecule GGGUUAGAUAGAGUUAAAAACCC (ssRNA, 2'-F pyrimidines; PS between U5 and A6) [56(18)], the IC50 with chymase (recombinant) [4] was 12 nM.

Take GGGUUAGAUAGAGUUAAAAACCC (ssRNA, 2'-F pyrimidines except U9 2'-OH) [56(15)]: the IC50 with chymase (recombinant) [4] was determined as 61 nM.

In the case of GGGUUAGAUAGAGUUAAAAACCC (ssRNA, 2'-F pyrimidines; 2'-OMe A18) [56(11)], in the data set with chymase (recombinant) [4], the IC50 was 28 nM.

B4: 39 (nucleic acid)
chain: GGGAGCAGGAGAGAGGUCAGAUGGUUACGGAUAGAGUUAAGGUAACGGUACGGCCUAUGCGUGCUAGUGUGA
modifications: aptamer; 2'-fluoro at CU, RNA at AG, backbone not given here
Turning to B4, the “Binding activity as determined using Biacore” value with chymase is “++”.

On to GGGUUAGAUAGAGUUAAAAACCC (ssRNA, 2'-F pyrimidines; 2'-OMe A16,A17) [56(5)], for which the IC50 in the data set with chymase (recombinant) [4] is 29 nM.

For GGGUUAGAUAGAGUUAAAAACCC (ssRNA, 2'-F pyrimidines; PS between A6 and G7) [56(19)], in the data set with chymase (recombinant) [4], the IC50 came out at 8 nM.
